T1: NatC WT complex (Naa30ΔC17, full-length Naa35, Naa38ΔC11) (S. cerevisiae, UniProt Q03503 1-159; Q02197 1-733; P23059 1-77)
T1 construct: Naa30, catalytic subunit of NatC, S. cerevisiae, residues 1–159; Naa38, small auxiliary subunit of NatC, S. cerevisiae, residues 1–77; also called heterotrimeric NatC complex; not shown: His6, N-terminal, cleaved; copies: + +
T1 sequence (looked up) 1: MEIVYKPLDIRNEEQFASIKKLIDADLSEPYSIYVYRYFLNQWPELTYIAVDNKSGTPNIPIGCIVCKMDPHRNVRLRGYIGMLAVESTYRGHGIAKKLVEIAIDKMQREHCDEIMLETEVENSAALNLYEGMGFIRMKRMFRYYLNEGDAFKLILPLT
T1 sequence (looked up) 2: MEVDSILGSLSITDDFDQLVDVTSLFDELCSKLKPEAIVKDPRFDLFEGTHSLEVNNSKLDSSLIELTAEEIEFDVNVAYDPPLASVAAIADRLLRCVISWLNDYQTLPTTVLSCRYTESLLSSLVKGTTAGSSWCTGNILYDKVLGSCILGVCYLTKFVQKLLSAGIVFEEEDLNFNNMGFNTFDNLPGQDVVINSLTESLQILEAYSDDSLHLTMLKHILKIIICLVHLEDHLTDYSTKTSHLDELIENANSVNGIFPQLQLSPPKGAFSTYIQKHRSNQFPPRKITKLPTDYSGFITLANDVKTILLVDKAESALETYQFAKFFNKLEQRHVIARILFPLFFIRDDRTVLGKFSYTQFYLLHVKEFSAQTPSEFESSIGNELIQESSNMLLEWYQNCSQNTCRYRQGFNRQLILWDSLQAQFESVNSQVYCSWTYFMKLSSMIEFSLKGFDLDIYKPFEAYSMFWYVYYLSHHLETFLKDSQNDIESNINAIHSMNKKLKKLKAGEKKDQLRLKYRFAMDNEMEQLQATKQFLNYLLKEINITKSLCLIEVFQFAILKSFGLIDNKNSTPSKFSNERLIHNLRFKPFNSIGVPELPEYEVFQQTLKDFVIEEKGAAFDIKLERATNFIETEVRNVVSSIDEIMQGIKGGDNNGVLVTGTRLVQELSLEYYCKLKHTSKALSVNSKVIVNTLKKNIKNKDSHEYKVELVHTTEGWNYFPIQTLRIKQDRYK
T1 sequence (looked up) 3: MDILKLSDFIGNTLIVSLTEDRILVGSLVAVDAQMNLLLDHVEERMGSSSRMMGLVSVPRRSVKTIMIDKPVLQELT


What was measured:
[1] = biological target: T1, NatC WT complex (Naa30ΔC17, full-length …); test: crystal structure; purified NatC with CoA (1:3) and substrate peptide … (1:5) or … (1:3) added to the crystallization setup; 14.5–16.5% PEG 4000, 150 mM ammonium iodide, 100 mM sodium citrate pH 6.1–6.3; conditions: both partners purified
[2] = substrate: CC(=O)SCCNC(=O)CCNC(=O)[C@H](O)C(C)(C)COP(=O)(O)OP(=O)(O)OC[C@H]1O[C@@H](n2cnc3c(N)ncnc32)[C@H](O)[C@@H]1OP(=O)(O)O; test: Ellman (DTNB) colorimetric acetyltransferase assay, Michaelis-Menten fit; type: biochemical, Saccharomyces cerevisiae; conditions: fixed yArl3 peptide … 1340 µM, 30–500 µM acetyl-CoA, pH 7.5, 25 °C
Text: Ellman (DTNB) colorimetric acetyltransferase assay, Michaelis-Menten fit on NatC WT (Naa30ΔC17, full-length Naa35, Naa38ΔC11)

Binder	binding result [1]	Km [2] [µM]
MLRFVGSRRR (the N-terminal five residues of the major capsid protein (Gag) of the S. cerevisiae virus L-A; GS linker and a triple arginine to facilitate peptide solubility; Only the first six residues were modelled in the crystal; source: synthetic peptide (ProteoGenix)) [Gag peptide (MLRFVGSRRR)]	binds	–
NatC WT (Naa30ΔC17, full-length Naa35, Naa38ΔC11) (Saccharomyces cerevisiae S288C) (protein, heterotrimer co-expressed in E. coli BL21(DE3) from pRSFDuet-1; Naa30 lacks 17 and Naa38 lacks 11 C-terminal residues; His6-tag on Naa35 cut by HRV 3C; with N-alpha-acetyltransferase 35, NatC auxiliary subunit; N-alpha-acetyltransferase 38, NatC auxiliary subunit) MEIVYKPLDIRNEEQFASIKKLIDADLSEPYSIYVYRYFLNQWPELTYIAVDNKSGTPNIPIGCIVCKMDPHRNVRLRGYIGMLAVESTYRGHGIAKKLVEIAIDKMQREHCDEIMLETEVENSAALNLYEGMGFIRMKRMFRYYLNEGDAFKLILPLT	–	30 ± 6

From PMC7608589, “Divergent architecture of the heterotrimeric NatC complex explains N-terminal acetylation of cognate substrates” (Nature Communications, 2020)
